Results reported in the supplement of paper PMC11246515.
± gives the standard deviation of the averaged measurements.

Assay: total protein half-life in vivo (active degradation + dilution); higher = more stable protein
[1] = E. coli NCM3722 delta-clpP delta-lon delta-hslV, growth: N-lim chemostat, doubling time 6 h
[2] = E. coli NCM3722 delta-clpP, growth: N-lim chemostat, doubling time 6 h
[3] = E. coli NCM3722 delta-hslV, growth: N-lim chemostat, doubling time 6 h
[4] = E. coli NCM3722 delta-lon, growth: N-lim chemostat, doubling time 6 h
[5] = E. coli NCM3722 delta-smpB, growth: N-lim chemostat, doubling time 6 h
[6] = wild type E. coli NCM3722, growth: C-lim chemostat, doubling time 3 h
[7] = wild type E. coli NCM3722, growth: C-lim chemostat, doubling time 6 h
[8] = wild type E. coli NCM3722, growth: C-lim chemostat, doubling time 12 h
[9] = wild type E. coli NCM3722, growth: N-lim chemostat, doubling time 6 h
[10] = wild type E. coli NCM3722, growth: N-lim chemostat, doubling time 12 h
[11] = wild type E. coli NCM3722, growth: P-lim chemostat, doubling time 6 h
[12] = wild type E. coli NCM3722, growth: P-lim chemostat, doubling time 12 h

MLIFEGKEIETDTEGYLKESSQWSEPLAVVIAENEGISLSPEHWEVVRFVRDFYLEFNTSPAIRMLVKAMANKFGEEKGNSRYLYRLFPKGPAKQATKIAGLPKPVKCI [P0AB18]
total protein half-life in vivo [1]: 4.6 ± 0.063 h | total protein half-life in vivo [2]: 3.82 ± 0.21 h | total protein half-life in vivo [3]: 4.08 ± 0.12 h | total protein half-life in vivo [4]: 6.01 ± 1.2 h | total protein half-life in vivo [5]: 4.08 ± 0.076 h | total protein half-life in vivo [6]: 2.84 ± 0.18 h | total protein half-life in vivo [7]: 5.35 ± 0.47 h | total protein half-life in vivo [8]: 12.8 ± 2.9 h | total protein half-life in vivo [9]: 3.49 ± 0.44 h | total protein half-life in vivo [10]: 6.82 ± 0.45 h | total protein half-life in vivo [11]: 4.73 ± 0.007 h | total protein half-life in vivo [12]: 10.19 ± 0.053 h

MLIGYVRVSTNDQNTDLQRNALNCAGCELIFEDKISGTKSERPGLKKLLRTLSAGDTLVVWKLDRLGRSMRHLVVLVEELRERGINFRSLTDSIDTSTPMGRFFFHVMGALAEMERELIVERTKAGLETARAQGRIGGRRPKLTPEQWAQAGRLIAAGTPRQKVAIIYDVGVSTLYKRFPAGDK
total protein half-life in vivo [2]: 6.3 h | total protein half-life in vivo [8]: 5.3 h | total protein half-life in vivo [9]: 6.47 h | total protein half-life in vivo [11]: 6.11 h | total protein half-life in vivo [12]: 12.2 ± 1.1 h

MLIIETLPLLRQQIRRLRMEGKRVALVPTMGNLHDGHMKLVDEAKARADVVVVSIFVNPMQFDRPEDLARYPRTLQEDCEKLNKRKVDLVFAPSVKEIYPNGTETHTYVDVPGLSTMLEGASRPGHFRGVSTIVSKLFNLVQPDIACFGEKDFQQLALIRKMVADMGFDIEIVGVPIMRAKDGLALSSRNGYLTAEQRKIAPGLYKVLSSIADKLQAGERDLDEIITIAGQELNEKGFRADDIQIRDADTLLEVSETSKRAVILVAAWLGDARLIDNKMVELA
total protein half-life in vivo [1]: 5.42 ± 0.33 h | total protein half-life in vivo [2]: 5.17 ± 0.93 h | total protein half-life in vivo [3]: 4.941 ± 0.045 h | total protein half-life in vivo [4]: 5.34 ± 0.1 h | total protein half-life in vivo [5]: 4.98 ± 0.26 h | total protein half-life in vivo [6]: 3.1 ± 0.28 h | total protein half-life in vivo [7]: 5.5 ± 0.056 h | total protein half-life in vivo [8]: 11.8 ± 2.4 h | total protein half-life in vivo [9]: 4.868 ± 0.016 h | total protein half-life in vivo [10]: 8.38 ± 0.16 h | total protein half-life in vivo [11]: 5.774 ± 0.017 h | total protein half-life in vivo [12]: 12.5 ± 0.45 h

MLIIKRSVAIIAILFSPLSTASNLTSQLHNFFSAQLAGVSDEVRVSIRTAPNLLPPCEQPLLSMSNNSRLWGNVNVLARCGNDKRYLQVNVQATGNYVVAAMPIARGGKLEAGNVKLKRGRLDTLPPRTVLDINQLVDAISLRDLSPDQPIQLTQFRQAWRVKAGQRVNVIASGDGFSANAEGQALNNAAVAQNARVRMVSGQVVSGVVDADGNILINL
total protein half-life in vivo [6]: 0.905 ± 0.37 h | total protein half-life in vivo [8]: 2.23 h

MLIPSKLSRPVRLDHTVVRERLLAKLSGANNFRLALITSPAGYGKTTLISQWAAGKNDIGWYSLDEGDNQQERFASYLIAAVQQATNGHCAICETMAQKRQYASLTSLFAQLFIELAEWHSPLYLVIDDYHLITNPVIHESMRFFIRHQPENLTLVVLSRNLPQLGIANLRVRDQLLEIGSQQLAFTHQEAKQFFDCRLSSPIEAAESSRICDDVSGWATALQLIALSARQNTHSAHKSARRLAGINASHLSDYLVDEVLDNVDLATRHFLLKSAILRSMNDALITRVTGEENGQMRLEEIERQGLFLQRMDDTGEWFCYHPLFGNFLRQRCQWELAAELPEIHRAAAESWMAQGFPSEAIHHALAAGDALMLRDILLNHAWSLFNHSELSLLEESLKALPWDSLLENPQLVLLQAWLMQSQHRYGEVNTLLARAEHEIKDIREDTMHAEFNALRAQVAINDGNPDEAERLAKLALEELPPGWFYSRIVATSVLGEVLHCKGELTRSLALMQQTEQMARQHDVWHYALWSLIQQSEILFAQGFLQTAWETQEKAFQLINEQHLEQLPMHEFLVRIRAQLLWAWARLDEAEASARSGIEVLSSYQPQQQLQCLAMLIQCSLARGDLDNARSQLNRLENLLGNGKYHSDWISNANKVRVIYWQMTGDKAAAANWLRHTAKPEFANNHFLQGQWRNIARAQILLGEFEPAEIVLEELNENARSLRLMSDLNRNLLLLNQLYWQAGRKSDAQRVLLDALKLANRTGFISHFVIEGEAMAQQLRQLIQLNTLPELEQHRAQRILREINQHHRHKFAHFDENFVERLLNHPEVPELIRTSPLTQREWQVLGLIYSGYSNEQIAGELEVAATTIKTHIRNLYQKLGVAHRQDAVQHAQQLLKMMGYGV
total protein half-life in vivo [1]: 6.02 ± 0.46 h | total protein half-life in vivo [3]: 0.718 h | total protein half-life in vivo [5]: 0.786 h | total protein half-life in vivo [6]: 0.61 ± 0.1 h | total protein half-life in vivo [7]: 1.05 ± 0.094 h | total protein half-life in vivo [8]: 1.38 ± 0.18 h | total protein half-life in vivo [10]: 0.803 h | total protein half-life in vivo [12]: 1.36 h

MLKIFNTLTRQKEEFKPIHAGEVGMYVCGITVYDLCHIGHGRTFVAFDVVARYLRFLGYKLKYVRNITDIDDKIIKRANENGESFVAMVDRMIAEMHKDFDALNILRPDMEPRATHHIAEIIELTEQLIAKGHAYVADNGDVMFDVPTDPTYGVLSRQDLDQLQAGARVDVVDDKRNPMDFVLWKMSKEGEPSWPSPWGAGRPGWHIECSAMNCKQLGNHFDIHGGGSDLMFPHHENEIAQSTCAHDGQYVNYWMHSGMVMVDREKMSKSLGNFFTVRDVLKYYDAETVRYFLMSGHYRSQLNYSEENLKQARAALERLYTALRGTDKTVAPAGGEAFEARFIEAMDDDFNTPEAYSVLFDMAREVNRLKAEDMAAANAMASHLRKLSAVLGLLEQEPEAFLQSGAQADDSEVAEIEALIQQRLDARKAKDWAAADAARDRLNEMGIVLEDGPQGTTWRRK
total protein half-life in vivo [1]: 5.28 ± 0.8 h | total protein half-life in vivo [2]: 4.75 ± 0.24 h | total protein half-life in vivo [3]: 4.85 ± 0.22 h | total protein half-life in vivo [4]: 5.1 ± 0.24 h | total protein half-life in vivo [5]: 4.97 ± 0.14 h | total protein half-life in vivo [6]: 3.24 ± 0.29 h | total protein half-life in vivo [7]: 5.41 ± 0.088 h | total protein half-life in vivo [8]: 9.907 ± 0.043 h | total protein half-life in vivo [9]: 4.84 ± 0.17 h | total protein half-life in vivo [10]: 7.97 ± 0.15 h | total protein half-life in vivo [11]: 6.14 ± 0.47 h | total protein half-life in vivo [12]: 11.5 ± 0.18 h

MLKKFRGMFSNDLSIDLGTANTLIYVKGQGIVLNEPSVVAIRQDRAGSPKSVAAVGHDAKQMLGRTPGNIAAIRPMKDGVIADFFVTEKMLQHFIKQVHSNSFMRPSPRVLVCVPVGATQVERRAIRESAQGAGAREVFLIEEPMAAAIGAGLPVSEATGSMVVDIGGGTTEVAVISLNGVVYSSSVRIGGDRFDEAIINYVRRNYGSLIGEATAERIKHEIGSAYPGDEVREIEVRGRNLAEGVPRGFTLNSNEILEALQEPLTGIVSAVMVALEQCPPELASDISERGMVLTGGGALLRNLDRLLMEETGIPVVVAEDPLTCVARGGGKALEMIDMHGGDLFSEE [P0A9X4]
total protein half-life in vivo [3]: 6.55 ± 0.53 h | total protein half-life in vivo [4]: 6.29 ± 0.99 h | total protein half-life in vivo [5]: 5.69 ± 0.23 h | total protein half-life in vivo [6]: 3.039 ± 0.01 h | total protein half-life in vivo [7]: 6.72 ± 0.37 h | total protein half-life in vivo [8]: 12.1 ± 0.77 h | total protein half-life in vivo [9]: 6.13 ± 0.39 h | total protein half-life in vivo [10]: 12.1 ± 0.8 h | total protein half-life in vivo [11]: 5.94 ± 0.36 h | total protein half-life in vivo [12]: 12.4 ± 0.42 h

MLKLLKTIMRAGTATVKYPFAPLEVSPGFRGKPDLMPSQCIACGACACACPANALTIQTDDQQNSRTWQLYLGRCIYCGRCEEVCPTRAIQLTNNFELTVTNKADLYTRATFHLQRCSRCERPFAPQKTIALAAELLAQQQNAPQNREMLWAQASVCPECKQRATLINDDTDVLLVAKEQL
total protein half-life in vivo [1]: 4.78 h
